According to US20250282866A1 (VIGIL NEUROSCIENCE, published 2025):
Positions count from the first letter of the chain named.

T1: human TREM2 (human, UniProt Q9NZC2 19-174, limits assumed)
T1 construct: also called triggering receptor expressed on myeloid cells 2
T1 sequence: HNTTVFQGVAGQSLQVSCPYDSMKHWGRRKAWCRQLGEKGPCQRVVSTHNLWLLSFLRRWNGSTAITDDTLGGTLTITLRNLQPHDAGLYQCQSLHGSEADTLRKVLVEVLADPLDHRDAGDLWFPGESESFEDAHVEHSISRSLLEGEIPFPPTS

B1: V15 (antibody, V domains shown)
VH: EVQLVQSGAEVKKPGESLKISCKGSGYSFASYWIAWVRQMPGKGLEWMGTIYPGDSDTRYSPSFQGQVTISADKSISTAYLQWSSLKASDTAMYFCARSRTFYYDSSDYFDYWGQGTLVTVSS
VL: DIQMTQSPSSVSASVGDRVTITCRASQGISSWLAWYQQKPGKAPKLLIYAASWLQNGVPSRFSGSGSGTDFTLTISSLQPEDFATYFCQQADSYPRTFGQGTKLEIK
B2: V38 (antibody, V domains shown)
VH: B1 VH with A30G, T50I, T58V, S99Q
VL: B1 VL with W53S, L54R, Y94H
B3: V64 (antibody, V domains shown)
VH: B1 VH with A30Q, T50I, S99G
VL: B1 VL with W53S, Q55A
B4: V41 (antibody, V domains shown)
VH: B1 VH with A30T, S99Q
VL: B1 VL with W53S, Y94F
B5: V62 (antibody, V domains shown)
VH: B1 VH with A30G, T50I, S61A, S99Q, D108G
VL: B1 VL with W53S, N56R, Q89G, Y94F
B6: V72 (antibody, V domains shown)
VH: B1 VH with A30T, A35G, T50I, S99G
VL: B1 VL with W53S, Q55V
B7: V26 (antibody, V domains shown)
VH: B1 VH with A30T, A35G, S99Q, F102M, Y112A
VL: B1 VL with W53S, N56R
B8: V49 (antibody, V domains shown)
VH: B1 VH with A30N, Y60L
VL: B1 VL with W53S, L54R
B9: V65 (antibody, V domains shown)
VH: B1 VH with A30T, T50I
VL: B1 VL with W53S, Y94F
B10: V61 (antibody, V domains shown)
VH: B1 VH with A30S, T50I, S61N, S99G
VL: B1 VL with W53S, Q55V, Y94L
B11: V73 (antibody, V domains shown)
VH: B1 VH with A30G, T50I, S63G, S99G
VL: B1 VL with W53S, L54R
B12: V39 (antibody, V domains shown)
VH: B1 VH with A30G, T50I, S61N, S99G
VL: B1 VL with W53S, Q55V, Y94S
B13: V25 (antibody, V domains shown)
VH: B1 VH with A30G, T50L
VL: B1 VL with W53S, Q55A, Y94M
B14: V40 (antibody, V domains shown)
VH: B1 VH with A30G, T50I, T58V, S99Q, F110S
VL: B1 VL with W53S, N56L, S93R, Y94F
B15: V50 (antibody, V domains shown)
VH: B1 VH with A30G, T50V, S99Q, F110L
VL: B1 VL with W53S, L54R, Y94L
B16: V28 (antibody, V domains shown)
VH: B1 VH with A30Q, S99Q, Y103F
VL: B1 VL with W53S, N56S, Y94L
B17: V17 (antibody, V domains shown)
VH: B1 VH with A30G, T50I
VL: B1 VL with W53S, L54R, Y94S
B18: V27 (antibody, V domains shown)
VH: B1 VH with A30T, T50I, S61A, A97V
VL: B1 VL with W53S, N56R, Y94F
B19: V53 (antibody, V domains shown)
VH: B1 VH with A30T, T50I, S63H, S99Q
VL: B1 VL with W53S, Y94F
B20: V52 (antibody, V domains shown)
VH: B1 VH with A30E, T50I, S99G
VL: B1 VL with W53S, N56R, S93R, Y94F
B21: V63 (antibody, V domains shown)
VH: B1 VH with A30R, T50I
VL: B1 VL with W53S, N56R, S93R, Y94F
B22: V60 (antibody, V domains shown)
VH: B1 VH with S28H, A30T, T50I, T58V, S99Q, F110S
VL: B1 VL with W53S, N56R, Q89G, Y94F
B23: V24 (antibody, V domains shown)
VH: B1 VH with A30T, T50I, T58V
VL: B1 VL with W53S, N56K, Y94F, R96H
B24: V51 (antibody, V domains shown)
VH: B1 VH with A30T, T50I, T58V, S99G, Y112N
VL: B1 VL with W53S, L54R, Y94F
B25: V37 (antibody, V domains shown)
VH: B1 VH with F29H, A30T, T50I, Q65A
VL: B1 VL with W53S, N56W
B26: V74 (antibody, V domains shown)
VH: B1 VH with T50I, T58V, S99G
VL: B1 VL with W53S, N56L, Y94F
B27: V48 (antibody, V domains shown)
VH: B1 VH with A30G, T50I, T58V, S99M
VL: B1 VL with W53S, N56T, Y94L
B28: V29 (antibody, V domains shown)
VH: B1 VH with A30K, T50I, S99Q
VL: B1 VL with W53S, Y94F
B29: V16 (antibody, V domains shown)
VH: B1 VH with F29M, A30T, T50I, S56G
VL: B1 VL with W53N, Y94F
B30: V36 (antibody, V domains shown)
VH: B1 VH with A30T, I34L, T50I
VL: B1 VL with W53S, L54R

target: T1, human TREM2; assay: 1st screen (110 nM or 10 nM)

Row | Binding Signal (fold over 6E7 Parental antibody) [fold] | Binder
1 | 5.23 | B1
2 | 4.34 | B2
3 | 5.41 | B3
4 | 1.74 | B4
5 | 2.49 | B5
6 | 3.64 | B6
7 | 3.57 | B7
8 | 6.51 | B8
9 | 2.05 | B9
10 | 5.08 | B10
11 | 5.12 | B11
12 | 6.15 | B12
13 | 4.23 | B13
14 | 4.48 | B14
15 | 4.1 | B15
16 | 3.08 | B16
17 | 5.37 | B17
18 | 5.5 | B18
19 | 1.25 | B19
20 | 3 | B20
21 | 3.76 | B21
22 | 3.26 | B22
23 | 2.64 | B23
24 | 2.81 | B24
25 | 3.46 | B25
26 | 3.94 | B26
27 | 2.42 | B27
28 | 1.53 | B28
29 | 4.01 | B29
30 | 3.38 | B30

target: T1, human TREM2; assay: 2nd screen 10 nM

Row | Binding Signal (fold over 6E7 Parental antibody) [fold] | Binder
31 | 4.78 | B1
32 | 4.36 | B2
33 | 5.48 | B3
34 | 1.72 | B4
35 | 2.89 | B5
36 | 4.01 | B6
37 | 3.47 | B7
38 | 6.58 | B8
39 | 2.75 | B9
40 | 5.22 | B10
41 | 5.44 | B11
42 | 5.81 | B12
43 | 4.7 | B13
44 | 4.16 | B14
45 | 4.16 | B15
46 | 3.61 | B16
47 | 5.51 | B17
48 | 5.69 | B18
49 | 1.17 | B19
50 | 3.09 | B20
51 | 3.71 | B21
52 | 3.63 | B22
53 | 2.9 | B23
54 | 3.18 | B24
55 | 3.49 | B25
56 | 4.01 | B26
57 | 2.54 | B27
58 | 1.67 | B28
59 | 4.04 | B29
60 | 3.44 | B30

target: T1, human TREM2; assay: 2nd screen 2 nM

Row | Binding Signal (fold over 6E7 Parental antibody) [fold] | Binder
61 | 4.72 | B1
62 | 3.44 | B2
63 | 4.88 | B3
64 | 0.58 | B4
65 | 1.87 | B5
66 | 2.5 | B6
67 | 2.83 | B7
68 | 5.02 | B8
69 | 1.29 | B9
70 | 3.63 | B10
71 | 4.17 | B11
72 | 5.11 | B12
73 | 3.15 | B13
74 | 3.41 | B14
75 | 3.39 | B15
76 | 2.63 | B16
77 | 4.22 | B17
78 | 5.67 | B18
79 | 0.66 | B19
80 | 1.78 | B20
81 | 4.91 | B21
82 | 3.35 | B22
83 | 1.42 | B23
84 | 1.83 | B24
85 | 3.69 | B25
86 | 2.54 | B26
87 | 2.3 | B27
88 | 0.84 | B28
89 | 3.57 | B29
90 | 4 | B30
